# Reference: PMC12222027, “In situ structure of a bacterial flagellar motor at subnanometre resolution reveals adaptations for increased torque” (Nature Microbiology, 2025)
# B1: FliL (C. jejuni 81-176, endogenous) (natural protein)
# chain: MDEELENEETKKKKGGSLVIIIVILLFVLLLSIMGVIAWLISSSSSDESEVKEAPKEEAKADKPKVSAPTQRGSDFANIGPMYPLDPFTLNLLSDSGSRYVKCTIELEQNSELLKPELDKKVPVIRDIIIRTLTAKTFEEVSTQKGKERLKDELVGKINEILTDGFIKNVYFTDFVVS
# notes: FliL, flagellar protein forming an arc of four copies around the MotB linker in each asymmetric unit; source: endogenous, C. jejuni 81-176: ΔflhG ΔflaAB minicells imaged in situ; lysates of formaldehyde-crosslinked ΔpflA or ΔpflB cells carrying the PflA-FLAG or PflB-FLAG plasmid
# Assays:
# [1] = target: FlgP (basal disk protein, C. jejuni 81-176, in the motor in situ) (C. jejuni 81-176 (endogenous in minicells)); experiment: cryo-EM structure; in situ single-particle analysis of motors in C. jejuni ΔflhG ΔflaAB minicells; C17 focused refinement of the periplasmic scaffold and first basal disk ring (7.9 Å); AlphaFold2 models docked or flexibly fitted into the map
# [2] = target: the molecule itself; experiment: as above
Molecule,stoichiometry N [1],stoichiometry N [2]
"FlgP (basal disk protein, C. jejuni 81-176, in the motor in situ) (natural protein)",51,–
B1,–,4
